Reference: PMC11861179, “Propionate metabolism in Desulfurella acetivorans” (Frontiers in Microbiology, 2025)

Columns and labels:
Assay in all cases: purified protein
[1] = test system: CCC(=O)SCCNC(=O)CCNC(=O)[C@H](O)C(C)(C)COP(=O)(O)OP(=O)(O)OC[C@H]1O[C@@H](n2cnc3c(N)ncnc32)[C@H](O)[C@@H]1OP(=O)(O)O; conditions: co-substrate oxaloacetate, 100 mM Tris-HCl pH 7.8, 55°C
[2] = test system: O=C(O)CC(=O)C(=O)O; conditions: co-substrate acetyl-CoA, 100 mM Tris-HCl pH 7.8, 55°C
[3] = test system: CC(C)(COP(=O)(O)OP(=O)(O)OC[C@H]1O[C@@H](n2cnc3c(N)ncnc32)[C@H](O)[C@@H]1OP(=O)(O)O)[C@@H](O)C(=O)NCCC(=O)NCCS; conditions: citrate cleavage direction, 55°C
[4] = test system: CC(=O)SCCNC(=O)CCNC(=O)[C@H](O)C(C)(C)COP(=O)(O)OP(=O)(O)OC[C@H]1O[C@@H](n2cnc3c(N)ncnc32)[C@H](O)[C@@H]1OP(=O)(O)O; conditions: co-substrate oxaloacetate, 100 mM Tris-HCl pH 7.8, 55°C

Question: For “Si-citrate/2-methylcitrate synthase (AHF97591) (Desulfurella acetivorans A63)”, which Km [1] is on record?
Answer: The Km was 22 ± 3.5 µM.

Question: What about the Vmax [1] of the same substance?
Answer: The Vmax was 7.4 µmol/min/mg.

Question: And the kcat/Km [1]?
Answer: The kcat/Km was 300 M⁻¹ s⁻¹.

Question: What about the Km [2] of the same substance?
Answer: Its Km is 30 ± 4.4 µM.

Question: What about the Vmax [2] of the same substance?
Answer: Its Vmax is 21 µmol/min/mg.

Question: And the kcat/Km [2]?
Answer: The kcat/Km was 600 M⁻¹ s⁻¹.

Question: What about the Km [3] of the same substance?
Answer: The Km was 41 ± 11 µM.

Question: What about the Vmax [3] of the same substance?
Answer: The Vmax was 0.1 µmol/min/mg.

Question: And the kcat/Km [3]?
Answer: The kcat/Km was 2000 M⁻¹ s⁻¹.

Question: What about the Km [4] of the same substance?
Answer: The Km was 14 ± 1.8 µM.

Question: What about the Vmax [4] of the same substance?
Answer: The Vmax was 26 µmol/min/mg.

Question: And the kcat/Km [4]?
Answer: Its kcat/Km is 1500 M⁻¹ s⁻¹.
